Measured values taken from publication PMC12439581 (mAbs, 2025).
Values joined by “and” are separate entries in the source; they are usually repeats but may differ in a detail not shown here. Identical values can stand only once.

Experiments:
[1] = target: T1, biotinylated α-elapitoxin-Dpp2d from Dendroaspis polylepis (Dendroaspis polylepis (black mamba), UniProt C0HJD7); test: BLI; […]; association at pH 7.4, dissociation at pH 5.5; 1:1 global fit; conditions: both partners purified
[2] = target: T2, biotinylated α-cobratoxin from Naja kaouthia (Naja kaouthia, biotin through amine coupling (NHS-PEG4-Biotin), sites not stated); test: BLI; conditions: both partners purified
T2 chain: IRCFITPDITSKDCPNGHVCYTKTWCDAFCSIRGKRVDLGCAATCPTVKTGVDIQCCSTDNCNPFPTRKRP

[3] = target: T1, biotinylated α-elapitoxin-Dpp2d from …; test: BLI; […]; association at pH 7.4, dissociation at pH 7.4; 1:1 global fit, […]; conditions: both partners purified
[4] = target: T3, biotinylated α-cobratoxin from Naja kaouthia (Naja kaouthia, UniProt P01391); test: BLI; conditions: both partners purified
[5] = target: T2, biotinylated α-cobratoxin from Naja …; test: BLI; conditions: both partners purified
[6] = target: T3, biotinylated α-cobratoxin from Naja …; test: DELFIA (dissociation-enhanced lanthanide fluorescence immunoassay); conditions: one partner purified

T1 sequence (C0HJD7 whole entry): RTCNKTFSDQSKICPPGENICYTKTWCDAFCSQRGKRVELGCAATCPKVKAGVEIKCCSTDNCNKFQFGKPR

B1: A01 Fab (Fab, V domains shown)
VH: QVQLVQSGAEVKKPGSSVKVSCKASGGTFSSYAISWVRQAPGQGLEWMGGIIPIFGTANYAQKFQGRVTITADESTSTAYMELRSLRSDDTAVYYCARDNLGYCSGGSCYSDYYYYYMDVWGQGTLVTVSS
VL: SYELTQPPSVSVAPGRTATITCEGDNIGQQIVHWYQQKPGQAPVAVISSDSDRPSGIPERFSGSNSGNTATLTISRVEAGDEADYYCQVWDSGSDHVVFGGGTKVTVL
koff [1]: 0.00295 s⁻¹ | kon [2]: 44000 M⁻¹ s⁻¹ | kon [3]: 84000 M⁻¹ s⁻¹

B2: 368_01_C05 Fab with the CDR-L3 glycosylation site at Asn95 removed (Fab, V domains shown)
VH: QVQLVQSGAEVKKPGSSVKVSCKASGGTFSSYAISWVRQAPGQGLEWMGGIIPIFGTANYAQKFQGRVTITADESTSTAYMELRSLRSDDTAVYYCARDNLGYCSGGSCYSDYYYYYMDVWGQGTLVTVSS
VL: NFMLTQPHSVSESPGKTVTISCTRSSGSIASTYVHWYQQRPGSAPTTVIYEDNQRPSGVPDRFSGSIDSSSNSASLTISGLKTEDEADYYCQSYDSSSGSVVFGGGTKLTVL
notes: also called parent mAb; parental mAb
binding result [4]: binds

B3: A12 Fab (Fab, V domains shown)
VH: QVQLVQSGAEVKKPGSSVKVSCKASGGTFSSYAISWVRQAPGQGLEWMGGIIPIFGTANYAQKFQGRVTITADESTSTAYMELRSLRSDDTAVYYCARDNLGYCSGGSCYSDYYYYYMDVWGQGTLVTVSS
VL: NFMLTQPHSVSESPGKTVTFSCTRSSGRIVSDYVHWYQQRPGSAPTTVIYEDNQRPSGVPDRFSGSIDSSSNSASLTISGLKTEDEADYYCQSYDSSNAYVVFGGGTKVTVL
binding result [4]: binds

B4: B11 Fab (Fab, V domains shown)
VH: QVQLVQSGAEVKKPGSSVKVSCKASGGTFSSYAISWVRQAPGQGLEWMGGIIPIFGTANYAQKFQGRVTITADESTSTAYMELRSLRSDDTAVYYCARDNLGYCSGGSCYSDYYYYYMDVWGQGTLVTVSS
VL: SYELTQPPSVSVAPGQTATITCGGHNIGSNIVHWYHQKPGQAPELVISHNTNRPSGIPERFSGSNSGSTATLTISRVEAVDEADYYCQVWDSSSEHVVFGGGTKVTVL
koff [1]: 0.00049 s⁻¹ | Kd [2]: 0.0057 ± 0.0011 µM | kon [2]: 59000 M⁻¹ s⁻¹ | Kd [3]: 0.0014 ± 0.0001 µM | koff [3]: 9e-05 s⁻¹ | kon [3]: 69000 M⁻¹ s⁻¹

B5: C05 Fab, parental mAb 368_01_C05, with the N-glycosylation site of CDR-L3 removed (C05-NS) (Fab, V domains shown)
VH: QVQLVQSGAEVKKPGSSVKVSCKASGGTFSSYAISWVRQAPGQGLEWMGGIIPIFGTANYAQKFQGRVTITADESTSTAYMELRSLRSDDTAVYYCARDNLGYCSGGSCYSDYYYYYMDVWGQGTLVTVSS
VL: NFMLTQPHSVSESPGKTVTISCTRSSGSIASTYVHWYQQRPGSAPTTVIYEDNQRPSGVPDRFSGSIDSSSNSASLTISGLKTEDEADYYCQSYDSSSGSVVFGGGTKLTVL
koff [1]: 0.00072 s⁻¹ | Kd [2]: 0.0712 ± 0.0054 µM | koff [2]: 0.00366 s⁻¹ and 0.00946 s⁻¹ | kon [2]: 51000 M⁻¹ s⁻¹ | Kd [3]: 0.0046 ± 0.00047 µM | koff [3]: 0.00034 s⁻¹ | kon [3]: 76000 M⁻¹ s⁻¹

B6: D11_Y49A scFv (scFv, V domains shown)
VH: QVQLVQSGAEVKKPGSSVKVSCKASGGTFSSYAISWVRQAPGQGLEWMGGIIPIFGTANYAQKFQGRVTITADESTSTAYMELRSLRSDDTAVYYCARDNLGYCSGGSCYSDYYYYYMDVWGQGTLVTVSS
VL: NFMLTQPRSVSESPGKTVTISCTRSSGSIGSDYVHWYQQRPGSSPTTVIAEDNQRPSGVPDRFSGSIDSSSNSASLTISGLKTEDEADYYCQSYDRSNHEVVFGGGTKLTVL
notes: source: E. coli BL21(DE3)
Kd [5]: 0.0688 µM | koff [5]: 0.0018 s⁻¹ and 0.00355 s⁻¹ | kon [5]: 26200 M⁻¹ s⁻¹

B7: G09 Fab (Fab, V domains shown)
VH: QVQLVQSGAEVKKPGSSVKVSCKASGGTFSSYAISWVRQAPGQGLEWMGGIIPIFGTANYAQKFQGRVTITADESTSTAYMELRSLRSDDTAVYYCARDNLGYCSGGSCYSDYYYYYMDVWGQGTLVTVSS
VL: SYELTQPPSVSVAPGRTATITCEGDNIGQQIVHWYRQKSDQAPVVVVYDGSRRPSGIPERFSGSNSGNTATLTISRVEAGDEADYYCQVWDITSDHVVFGGGTQLTVL
koff [1]: 0.00035 s⁻¹ | Kd [2]: 0.0042 ± 0.0028 µM | kon [2]: 71000 M⁻¹ s⁻¹ | Kd [3]: 0.001 ± 0.0005 µM | koff [3]: 0.00015 s⁻¹ | kon [3]: 156000 M⁻¹ s⁻¹

B8: A04 Fab (Fab, V domains shown)
VH: QVQLVQSGAEVKKPGSSVKVSCKASGGTFSSYAISWVRQAPGQGLEWMGGIIPIFGTANYAQKFQGRVTITADESTSTAYMELRSLRSDDTAVYYCARDNLGYCSGGSCYSDYYYYYMDVWGQGTLVTVSS
VL: SYELTQPPSMSVAPGQTARITCGGDYIGGESVHWYQQKPGRAPVAVVYDDTHRPSGIPERFSGANSGNTATLTISKVEAGDEADYYCQVWDVSSDHVVFGGGTKLTVL
koff [1]: 0.00024 s⁻¹ | Kd [2]: 0.0153 ± 0.014 µM | kon [2]: 62000 M⁻¹ s⁻¹ | Kd [3]: 0.0006 ± 0.0004 µM | koff [3]: 9e-05 s⁻¹ | kon [3]: 161000 M⁻¹ s⁻¹

B9: D11_E50A scFv (scFv, V domains shown)
VH: QVQLVQSGAEVKKPGSSVKVSCKASGGTFSSYAISWVRQAPGQGLEWMGGIIPIFGTANYAQKFQGRVTITADESTSTAYMELRSLRSDDTAVYYCARDNLGYCSGGSCYSDYYYYYMDVWGQGTLVTVSS
VL: NFMLTQPRSVSESPGKTVTISCTRSSGSIGSDYVHWYQQRPGSSPTTVIYADNQRPSGVPDRFSGSIDSSSNSASLTISGLKTEDEADYYCQSYDRSNHEVVFGGGTKLTVL
notes: source: E. coli BL21(DE3)
Kd [5]: 0.158 µM | koff [5]: 0.00469 s⁻¹ and 0.0134 s⁻¹ | kon [5]: 29700 M⁻¹ s⁻¹

B10: A01 scFv with His34 (CDR-L1) substituted to alanine (scFv, V domains shown)
VH: QVQLVQSGAEVKKPGSSVKVSCKASGGTFSSYAISWVRQAPGQGLEWMGGIIPIFGTANYAQKFQGRVTITADESTSTAYMELRSLRSDDTAVYYCARDNLGYCSGGSCYSDYYYYYMDVWGQGTLVTVSS
VL: SYELTQPPSVSVAPGRTATITCEGDNIGQQIVAWYQQKPGQAPVAVISSDSDRPSGIPERFSGSNSGNTATLTISRVEAGDEADYYCQVWDSGSDHVVFGGGTKVTVL
notes: also called A01-H34A; source: E. coli BL21(DE3), in culture supernatant
pH 7.4/pH 5.8 ratio of toxin remaining bound (TRF signal) [6]: 1.6

B11: D11 scFv with C-terminal 6xHis-FLAG extension (scFv, V domains shown)
VH: QVQLVQSGAEVKKPGSSVKVSCKASGGTFSSYAISWVRQAPGQGLEWMGGIIPIFGTANYAQKFQGRVTITADESTSTAYMELRSLRSDDTAVYYCARDNLGYCSGGSCYSDYYYYYMDVWGQGTLVTVSS
VL: NFMLTQPRSVSESPGKTVTISCTRSSGSIGSDYVHWYQQRPGSSPTTVIYEDNQRPSGVPDRFSGSIDSSSNSASLTISGLKTEDEADYYCQSYDRSNHEVVFGGGTKLTVL
notes: also called original D11; source: E. coli BL21(DE3); culture supernatant (DELFIA); purified (HisTrap, SEC)
pH 7.4/pH 5.8 ratio of toxin remaining bound (TRF signal) [6]: ~1.3 | pH 7.4/pH 5.8 ratio of toxin remaining bound (fold-difference) [6]: ~1.2 fold

B12: D11 scFv (scFv, V domains shown)
VH: QVQLVQSGAEVKKPGSSVKVSCKASGGTFSSYAISWVRQAPGQGLEWMGGIIPIFGTANYAQKFQGRVTITADESTSTAYMELRSLRSDDTAVYYCARDNLGYCSGGSCYSDYYYYYMDVWGQGTLVTVSS
VL: NFMLTQPRSVSESPGKTVTISCTRSSGSIGSDYVHWYQQRPGSSPTTVIYEDNQRPSGVPDRFSGSIDSSSNSASLTISGLKTEDEADYYCQSYDRSNHEVVFGGGTKLTVL
Kd [5]: 0.0444 µM | koff [5]: 0.00177 s⁻¹ and 0.00189 s⁻¹ | kon [5]: 39900 M⁻¹ s⁻¹

B13: D11_Y49S scFv (scFv, V domains shown)
VH: QVQLVQSGAEVKKPGSSVKVSCKASGGTFSSYAISWVRQAPGQGLEWMGGIIPIFGTANYAQKFQGRVTITADESTSTAYMELRSLRSDDTAVYYCARDNLGYCSGGSCYSDYYYYYMDVWGQGTLVTVSS
VL: NFMLTQPRSVSESPGKTVTISCTRSSGSIGSDYVHWYQQRPGSSPTTVISEDNQRPSGVPDRFSGSIDSSSNSASLTISGLKTEDEADYYCQSYDRSNHEVVFGGGTKLTVL
notes: source: E. coli BL21(DE3)
Kd [5]: 0.0488 µM | koff [5]: 0.00195 s⁻¹ and 0.00416 s⁻¹ | kon [5]: 40000 M⁻¹ s⁻¹

B14: A01 scFv (scFv, V domains shown)
VH: QVQLVQSGAEVKKPGSSVKVSCKASGGTFSSYAISWVRQAPGQGLEWMGGIIPIFGTANYAQKFQGRVTITADESTSTAYMELRSLRSDDTAVYYCARDNLGYCSGGSCYSDYYYYYMDVWGQGTLVTVSS
VL: SYELTQPPSVSVAPGRTATITCEGDNIGQQIVHWYQQKPGQAPVAVISSDSDRPSGIPERFSGSNSGNTATLTISRVEAGDEADYYCQVWDSGSDHVVFGGGTKVTVL
Kd [5]: 0.0522 µM | kon [5]: 43200 M⁻¹ s⁻¹

B15: A01 scFv with His95b (CDR-L3) substituted to alanine (scFv, V domains shown)
VH: QVQLVQSGAEVKKPGSSVKVSCKASGGTFSSYAISWVRQAPGQGLEWMGGIIPIFGTANYAQKFQGRVTITADESTSTAYMELRSLRSDDTAVYYCARDNLGYCSGGSCYSDYYYYYMDVWGQGTLVTVSS
VL: SYELTQPPSVSVAPGRTATITCEGDNIGQQIVHWYQQKPGQAPVAVISSDSDRPSGIPERFSGSNSGNTATLTISRVEAGDEADYYCQVWDSGSDAVVFGGGTKVTVL
notes: also called A01-H95bA; source: E. coli BL21(DE3), in culture supernatant
fold reduction of the pH 7.4/pH 5.8 ratio against the A01 scFv [6]: ~3 fold

B16: A01 scFv with C-terminal 6xHis-FLAG extension (scFv, V domains shown)
VH: QVQLVQSGAEVKKPGSSVKVSCKASGGTFSSYAISWVRQAPGQGLEWMGGIIPIFGTANYAQKFQGRVTITADESTSTAYMELRSLRSDDTAVYYCARDNLGYCSGGSCYSDYYYYYMDVWGQGTLVTVSS
VL: SYELTQPPSVSVAPGRTATITCEGDNIGQQIVHWYQQKPGQAPVAVISSDSDRPSGIPERFSGSNSGNTATLTISRVEAGDEADYYCQVWDSGSDHVVFGGGTKVTVL
notes: also called original A01 scFv; source: E. coli BL21(DE3); culture supernatant (DELFIA); purified (HisTrap, SEC)
pH 7.4/pH 5.8 ratio of toxin remaining bound (TRF signal) [6]: ~12 | pH 7.4/pH 5.8 ratio of toxin remaining bound (fold-difference) [6]: ~13.4 fold

B17: E01 Fab (Fab, V domains shown)
VH: QVQLVQSGAEVKKPGSSVKVSCKASGGTFSSYAISWVRQAPGQGLEWMGGIIPIFGTANYAQKFQGRVTITADESTSTAYMELRSLRSDDTAVYYCARDNLGYCSGGSCYSDYYYYYMDVWGQGTLVTVSS
VL: NFMLTQPRSVSESPGKTVTISCTRSSGSIGSDYVHWYQQRPGSSPTTVIYEDNRRPSGVPDRFSGSIASSANSASLTISGLRPEDEADYYCQSYDSTTNHVVFGGGTKVTVL
binding result [4]: binds
